The values below come from patent US20190300623A1 (POLYTHERICS, published 2019).

Read-outs that look alike come from different tables or passages of the source.

Assay [1] addresses PSMA on PSMA-positive LNCaP (clone FGC) and C4-2 cells. The experiment in a line: cell-based or functional assay.
The target in assay [2] is T1, recombinant human PSMA (R&D Systems) (human, UniProt Q04609 44-750).
T1 construct: Bought protein used as the Biacore analyte; also called PSMA antigen; PSMA analyte
The experiment in a line: SPR (Biacore T200), relative to AB-01 on the same chip.

The target in assay [3] is T1, recombinant human PSMA (R&D Systems). The experiment in a line: SPR (Biacore T200), antibody captured on Protein A chip, recombinant human PSMA as analyte, 25 C.
For assay [4] the target is unchanged. The description is as above. This is another data set of the same source.
The target is the same in assay [5]. The assay is described as above. This is another data set of the same source.

T1 sequence (Q04609 44-750 limits assumed): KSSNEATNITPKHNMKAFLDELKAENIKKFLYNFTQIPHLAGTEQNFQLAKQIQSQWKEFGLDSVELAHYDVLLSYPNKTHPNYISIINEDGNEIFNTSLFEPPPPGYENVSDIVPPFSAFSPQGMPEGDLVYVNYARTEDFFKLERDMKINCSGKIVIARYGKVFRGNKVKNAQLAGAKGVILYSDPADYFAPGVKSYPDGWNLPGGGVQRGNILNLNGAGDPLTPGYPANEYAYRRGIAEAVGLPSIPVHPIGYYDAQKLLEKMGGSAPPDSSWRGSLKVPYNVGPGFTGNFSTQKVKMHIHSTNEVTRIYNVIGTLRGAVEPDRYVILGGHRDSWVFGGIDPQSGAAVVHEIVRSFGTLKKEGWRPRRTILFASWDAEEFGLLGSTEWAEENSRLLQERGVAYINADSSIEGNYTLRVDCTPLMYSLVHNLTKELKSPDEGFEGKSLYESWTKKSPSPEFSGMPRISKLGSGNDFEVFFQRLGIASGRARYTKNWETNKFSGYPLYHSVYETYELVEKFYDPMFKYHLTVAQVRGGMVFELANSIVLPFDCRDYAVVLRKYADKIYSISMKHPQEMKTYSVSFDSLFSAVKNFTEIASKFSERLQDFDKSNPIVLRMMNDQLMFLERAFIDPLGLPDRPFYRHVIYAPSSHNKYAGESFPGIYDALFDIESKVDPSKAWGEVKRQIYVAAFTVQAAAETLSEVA

B1: AB-02-mc-val-cit-PAB-MMAE (antibody, human IgG1, V domains shown)
VH: EVQLVQSGAEVKKPGASVKVSCKASGYTFTEYTIHWVRQAPGKGLEWIGNINPNNGGTTYNQKFEDRVTITVDKSTSTAYMELSSLRSEDTAVYYCAAYWLFDYWGQGTTVTVSS
VL: DIQMTQSPSTLSASVGDRVTITCKASQDVGTAVDWYQQKPGQAPKLLIYWASTRHTGVPDRFSGSGSGTDFTLTISRLQPEDFAVYYCQQYNSYPLTFGQGTKVDIK
modifications: mc-val-cit-PAB-MMAE (maleimide reagent) conjugated after TCEP reduction; average DAR 3.5 (±0.2); attachment residues not given
Take B1: in assay [1], the “IC50 (nM), anti-proliferative effect on C4-2 cells (CellTiter Glo viability)” value (shortened to “IC50 … on C4-2 cells (CellTiter Glo viability)”) was 0.18 nM and the “IC50 (nM), anti-proliferative effect on LNCaP cells (CellTiter Glo viability)” value (shortened to “IC50 … on LNCaP cells (CellTiter Glo viability)”) was 0.61 nM.

B2: AB-05-mc-val-cit-PAB-MMAE (antibody, human IgG1, V domains shown)
VH: EVQLVQSGAEVKKPGASVKVSCKASGYTFTEYTIHWVRQAPGKGLEWIGNINPNNGGTTYNQKFEDRVTITVDKSTSTAYMELSSLRSEDTAVYYCAAYWLFDYWGQGTTVTVSS
VL: DIQMTQSPSTLSASVGDRVTITCKASQDVGTAVDWYQQKPGQAPKLLIYWASTRHTGVPDRFSGSGSGTDFTLTISRLQPEDFAVYYCQQYNAYSLTFGQGTKVDIK
modifications: mc-val-cit-PAB-MMAE (maleimide reagent) conjugated after TCEP reduction; average DAR 3.5 (±0.2); attachment residues not given
B2: in assay [1], the “IC50 … on C4-2 cells (CellTiter Glo viability)” value worked out at 0.41 nM and the “IC50 … on LNCaP cells (CellTiter Glo viability)” value is 1.27 nM.

B3: AB-03-mc-val-cit-PAB-MMAE (antibody, human IgG1, V domains shown)
VH: EVQLVQSGAEVKKPGASVKVSCKASGYTFTEYTIHWVRQAPGKGLEWIGNINPNNGGTTYNQKFEDRVTITVDKSTSTAYMELSSLRSEDTAVYYCAGGWTFDYWGQGTTVTVSS
VL: DIQMTQSPSTLSASVGDRVTITCKASQDVGTAVDWYQQKPGQAPKLLIYWASTRHTGVPDRFSGSGSGTDFTLTISRLQPEDFAVYYCQQFTRYPLTFGQGTKVDIK
modifications: mc-val-cit-PAB-MMAE (maleimide reagent) conjugated after TCEP reduction; average DAR 3.5 (±0.2); attachment residues not given
Take B3: in assay [1], the “IC50 … on C4-2 cells (CellTiter Glo viability)” value came to 0.22 nM and the “IC50 … on LNCaP cells (CellTiter Glo viability)” value was 0.7 nM.

B4: AB-04-mc-val-cit-PAB-MMAE (antibody, human IgG1, V domains shown)
VH: EVQLVQSGAEVKKPGASVKVSCKASGYTFTEYTIHWVRQAPGKGLEWIGNINPNNGGTTYNQKFEDRVTITVDKSTSTAYMELSSLRSEDTAVYYCAGAWTMDYWGQGTTVTVSS
VL: DIQMTQSPSTLSASVGDRVTITCKASQDVGTAVDWYQQKPGQAPKLLIYWASTRHTGVPDRFSGSGSGTDFTLTISRLQPEDFAVYYCQQFTRYPLTFGQGTKVDIK
modifications: mc-val-cit-PAB-MMAE (maleimide reagent) conjugated after TCEP reduction; average DAR 3.5 (±0.2); attachment residues not given
B4: in assay [1], the “IC50 … on C4-2 cells (CellTiter Glo viability)” value stood at 0.21 nM and the “IC50 … on LNCaP cells (CellTiter Glo viability)” value was found to be 0.67 nM.

B5: AB-02 (antibody, human IgG1, V domains shown)
VH: EVQLVQSGAEVKKPGASVKVSCKASGYTFTEYTIHWVRQAPGKGLEWIGNINPNNGGTTYNQKFEDRVTITVDKSTSTAYMELSSLRSEDTAVYYCAAYWLFDYWGQGTTVTVSS
VL: DIQMTQSPSTLSASVGDRVTITCKASQDVGTAVDWYQQKPGQAPKLLIYWASTRHTGVPDRFSGSGSGTDFTLTISRLQPEDFAVYYCQQYNSYPLTFGQGTKVDIK
notes: Variable domains only; Expressed as human IgG1 (G1m3) / kappa (Km3)
For B5, in assay [2], the “Relative KD” value was found to be 1.98. Also, in assay [3], the Kd (as a rule, the constant that tells how readily two partners part at equilibrium) was found to be 280 pM.

B6: AB-05 (antibody, human IgG1, V domains shown)
VH: EVQLVQSGAEVKKPGASVKVSCKASGYTFTEYTIHWVRQAPGKGLEWIGNINPNNGGTTYNQKFEDRVTITVDKSTSTAYMELSSLRSEDTAVYYCAAYWLFDYWGQGTTVTVSS
VL: DIQMTQSPSTLSASVGDRVTITCKASQDVGTAVDWYQQKPGQAPKLLIYWASTRHTGVPDRFSGSGSGTDFTLTISRLQPEDFAVYYCQQYNAYSLTFGQGTKVDIK
notes: as for B5
For the molecule B6, the Kd in assay [4] is 224 pM.

B7: AB-03 (antibody, human IgG1, V domains shown)
VH: EVQLVQSGAEVKKPGASVKVSCKASGYTFTEYTIHWVRQAPGKGLEWIGNINPNNGGTTYNQKFEDRVTITVDKSTSTAYMELSSLRSEDTAVYYCAGGWTFDYWGQGTTVTVSS
VL: DIQMTQSPSTLSASVGDRVTITCKASQDVGTAVDWYQQKPGQAPKLLIYWASTRHTGVPDRFSGSGSGTDFTLTISRLQPEDFAVYYCQQFTRYPLTFGQGTKVDIK
notes: as for B5
Take B7: the Kd in assay [5] was 245 pM.

B8: AB-04 (antibody, human IgG1, V domains shown)
VH: EVQLVQSGAEVKKPGASVKVSCKASGYTFTEYTIHWVRQAPGKGLEWIGNINPNNGGTTYNQKFEDRVTITVDKSTSTAYMELSSLRSEDTAVYYCAGAWTMDYWGQGTTVTVSS
VL: DIQMTQSPSTLSASVGDRVTITCKASQDVGTAVDWYQQKPGQAPKLLIYWASTRHTGVPDRFSGSGSGTDFTLTISRLQPEDFAVYYCQQFTRYPLTFGQGTKVDIK
notes: as for B5
On to B8, for which the “Relative KD” value in assay [2] is 1.56. Besides, the Kd in assay [3] is 354 pM.

B9: AB-09-mc-val-cit-PAB-MMAE (antibody, IgG1, V domains shown)
VH: QVQLVESGGGVVQPGRSLRLSCAASGFTFSNYVMHWVRQAPGKGLEWVAIIWYDGSNKYYADSVKGRFTISRDNSKNTLYLQMNSLRAEDTAVYYCAGGYNWNYEYHYYGMDVWGQGTTVTVSS
VL: DIQMTQSPSSLSASVGDRVTITCRASQGITNYLAWFQQKPGKAPKSLIYAASSLQSGVPSKFSGSGSGTDFSLTISSLQPEDFATYYCQQYNSYPITFGQGTRLEIK
modifications: mc-val-cit-PAB-MMAE (maleimide reagent) conjugated after TCEP reduction; average DAR 3.5 (±0.2); attachment residues not given
Turning to B9, in assay [1], the “IC50 … on C4-2 cells (CellTiter Glo viability)” value came out at 0.24 nM and the “IC50 … on LNCaP cells (CellTiter Glo viability)” value was determined as 0.89 nM.

B10: AB-08-mc-val-cit-PAB-MMAE (antibody, V domains shown)
VH: QVQLVESGGGVVQPGRSLRLSCAASGFAFSRYGMHWVRQAPGKGLEWVAVIWYDGSNKYYADSVKGRFTISRDNSKNTQYLQMNSLRAEDTAVYYCARGGDFLYYYYYGMDVWGQGTTVTVSS
VL: DIQMTQSPSSLSASVGDRVTITCRASQGISNYLAWYQQKTGKVPKFLIYEASTLQSGVPSRFSGGGSGTDFTLTISSLQPEDVATYYCQNYNSAPFTFGPGTKVDIK
modifications: mc-val-cit-PAB-MMAE (maleimide reagent) conjugated after TCEP reduction; average DAR 3.5 (±0.2); attachment residues not given
Turning to B10, in assay [1], the “IC50 … on C4-2 cells (CellTiter Glo viability)” value stood at 0.31 nM and the “IC50 … on LNCaP cells (CellTiter Glo viability)” value was 1.03 nM.
